Experimental data reported in publication PMC13031558, “An intrinsically disordered region mediates RNA-binding selectivity and cellular activities of LARP6”.

T1: LARP6 NTD (Homo sapiens, UniProt Q9BRS8 2-300)
T1 sequence: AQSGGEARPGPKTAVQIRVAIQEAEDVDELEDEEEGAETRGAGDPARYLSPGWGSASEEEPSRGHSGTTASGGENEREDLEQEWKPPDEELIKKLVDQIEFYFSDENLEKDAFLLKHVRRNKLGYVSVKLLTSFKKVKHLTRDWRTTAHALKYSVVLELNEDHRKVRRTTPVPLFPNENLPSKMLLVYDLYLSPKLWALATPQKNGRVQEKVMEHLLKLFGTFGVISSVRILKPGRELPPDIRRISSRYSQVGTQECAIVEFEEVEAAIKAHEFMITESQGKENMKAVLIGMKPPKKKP

T2: LARP6 La-module (Homo sapiens, UniProt Q9BRS8 70-300)
T2 sequence: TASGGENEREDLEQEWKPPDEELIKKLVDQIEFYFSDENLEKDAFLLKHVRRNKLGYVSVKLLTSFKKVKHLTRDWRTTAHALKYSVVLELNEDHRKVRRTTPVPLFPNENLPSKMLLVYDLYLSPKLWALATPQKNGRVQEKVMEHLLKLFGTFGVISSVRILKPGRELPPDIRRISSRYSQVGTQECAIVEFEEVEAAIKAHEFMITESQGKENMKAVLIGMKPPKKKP

T3: LARP6 NTR (Homo sapiens, UniProt Q9BRS8 2-83)
T3 sequence: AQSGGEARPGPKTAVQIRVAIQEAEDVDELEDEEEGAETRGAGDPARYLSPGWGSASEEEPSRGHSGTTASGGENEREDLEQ


Key:
LARP6 NTD [1] = molecular target: T1, LARP6 NTD; assay: BLI; Mg; 20 mM Tris-HCl pH 7.5, 100 mM KCl, 0.5 mM MgCl2, 1 mM TCEP, 0.05% Tween-20, 25 C; steady state, 1:1 fit; settings: label: 5' biotin
LARP6 La-module [2] = molecular target: T2, LARP6 La-module; assay: as above; settings: label: 5' biotin
LARP6 NTD [3] = molecular target: T1, LARP6 NTD; assay: BLI; 0.5 mM Mg2+; BLI: 20 mM Tris-HCl pH 7.5, 100 mM KCl, 0.5 mM MgCl2, 1 mM TCEP, 0.05% Tween-20, 25 °C; MST, NMR and SAXS buffers not in the material; settings: protein: recombinant; tags: 6xHis-SUMO-TEV tag, cleaved; label: 5' biotin; single strand
LARP6 La-module [4] = molecular target: T2, LARP6 La-module; assay: as above; settings: protein: recombinant; tags: His tag cleaved by TEV; label: 5' biotin; single strand
LARP6 NTR [5] = molecular target: T3, LARP6 NTR; assay: as above; settings: protein: recombinant; tags: 6xHis-SUMO-TEV tag, cleaved; label: 5' biotin; single strand
LARP6 NTR [6] = molecular target: T3, LARP6 NTR; assay: MST; BLI: 20 mM Tris-HCl pH 7.5, 100 mM KCl, 0.5 mM MgCl2, 1 mM TCEP, 0.05% Tween-20, 25 °C; MST, NMR and SAXS buffers not in the material; settings: protein: recombinant; tags: 6xHis-SUMO-TEV tag, cleaved; label: 5' 6-FAM; single strand
LARP6 NTD [7] = molecular target: T1, LARP6 NTD; assay: as above; settings: protein: recombinant; tags: 6xHis-SUMO-TEV tag, cleaved; label: 5' 6-FAM; single strand
LARP6 La-module [8] = molecular target: T2, LARP6 La-module; assay: as above; settings: protein: recombinant; tags: His tag cleaved by TEV; label: 5' 6-FAM; single strand

Binder | Kd (LARP6 NTD [1]) [nM] | Kd (LARP6 La-module [2]) [nM] | Kd (LARP6 NTD [3]) [nM] | Kd (LARP6 La-module [4]) [nM] | Kd (LARP6 NTR [5]) [nM] | Kd (LARP6 NTR [6]) [nM] | Kd (LARP6 NTD [7]) [nM] | Kd (LARP6 La-module [8]) [nM]
CCCUCGGGGCUCCUGAAUAUCAGUC (ssRNA) [CTNNA1 U2] | 180 ± 5 | 4.3 ± 0.1 | 183 ± 5 | 4.4 ± 0.1 |  |  |  | 
AGGUGGUGAAUUUUCCAAGAACAUA (ssRNA) [CTNNA1 D1] | 87 ± 4 | 2 ± 0.1 | 85 ± 4 |  |  |  |  | 
GUUUAAGUUGAUUAAAAAUGCUUUU (ssRNA) [CTNNA1 D2] | 360 ± 57 | 6.9 ± 0.6 | 367 ± 57 |  |  |  |  | 
CUAAAUACAACACUGAUACUAGAUU (ssRNA) [CTNNA1 P1 (5' biotin)] |  |  | 61 ± 5 | 1.5 ± 0.4 | 1200 ± 500 |  |  | 
CUAAAUACAACACUGAUACUAGAUU (ssRNA) [CTNNA1 P1 (5' 6-FAM)] |  |  |  |  |  | 8300 | 99 | 5.8
GGAAAUGGGCAGACUGAACCAGUCC (ssRNA) [CTNNA1 P2] | 17 ± 1.2 | 0.9 ± 0.05 |  | 0.91 ± 0.05 |  |  |  | 
ACUGUUCGUCACUCAAAUGAAUUUG (ssRNA) [CTNNA1 U1] |  | 14 ± 0.8 | 587 ± 29 |  |  |  |  | 
CUAAAUACAACACUGAUACUAGAUU (ssRNA) [CTNNA1 P1] | 58 ± 5 | 1.3 ± 0.4 |  |  |  |  |  | 
